Key:
[1] = molecular target: T1, ADP-HSP70 (ADP-enriched HSP70) (Homo sapiens (Human), UniProt P0DMV8 1-641); assay: BLI, 77A on sensor
T1 construct: also called ADP-HSP70 complexes
Experimental: HSP70 was expressed in SF9 cells. Affinity chromatography using resins selective for ADP or ATP-binding proteins were used to enrich bulk preparations of the correspondingly bound HSP70 recombinant protein. Protein concentrations, determined after elution, were measured so that equal concentrations could be used in subsequent assays. For BLI-based assays, antibodies and reagents were diluted out onto microwell plates and loaded into the instrument. Antibodies being tested were immobilized onto dip-and-read sensors and then observed for kinetics during binding to ATP or ADP-enriched HSP70. For ELISA, the relevant enriched HSP70 proteins were directly coated onto ELISA plate wells overnight. Test antibodies were then serially diluted across the plate wells, and detected using an appropriate secondary antibody-HRP conjugate. The plates were developed using a TMB substrate, and the O.D. stabilized using an acid stop solution.

614 = molecular target: T2, 614; assay: immunoprecipitation from cell lysate (CL) with 77A, Western blot GFP [panel C]
T2 construct: lane label in panel C
Experimental: (§1) IP of cell extracts with 77A was followed by detection of proteins by Western blotting (WB) with an anti-GFP antibody (B). Smaller deletions were then generated for finer mapping (C), and the indicated IPs were performed from cell lysates (CL) or culture media supernatants (CM). Loading was confirmed with an a-light chain (LC) antibody. The putative binding domain for 77A is indicated on a molecular model of HSP70 representing the relevant region of the protein (D). The exact amino acids that comprise the 77A epitope were determined using alanine scanning analysis, and the results are shown in (E), and the ribbon diagram showing the primary and secondary critical sites is shown in (F).
(§2) Alanine scanning analysis was performed to identify key amino acids in HSP70 with which 77A interacts (FIG. 3E).

534 = molecular target: T3, 534; assay: immunoprecipitation of cell extracts with 77A, Western blot with anti-GFP [panel B]
T3 construct: lane label in panels A and B
Experimental: as §1, §2

T2 sequence (chain, as listed by the source limits assumed): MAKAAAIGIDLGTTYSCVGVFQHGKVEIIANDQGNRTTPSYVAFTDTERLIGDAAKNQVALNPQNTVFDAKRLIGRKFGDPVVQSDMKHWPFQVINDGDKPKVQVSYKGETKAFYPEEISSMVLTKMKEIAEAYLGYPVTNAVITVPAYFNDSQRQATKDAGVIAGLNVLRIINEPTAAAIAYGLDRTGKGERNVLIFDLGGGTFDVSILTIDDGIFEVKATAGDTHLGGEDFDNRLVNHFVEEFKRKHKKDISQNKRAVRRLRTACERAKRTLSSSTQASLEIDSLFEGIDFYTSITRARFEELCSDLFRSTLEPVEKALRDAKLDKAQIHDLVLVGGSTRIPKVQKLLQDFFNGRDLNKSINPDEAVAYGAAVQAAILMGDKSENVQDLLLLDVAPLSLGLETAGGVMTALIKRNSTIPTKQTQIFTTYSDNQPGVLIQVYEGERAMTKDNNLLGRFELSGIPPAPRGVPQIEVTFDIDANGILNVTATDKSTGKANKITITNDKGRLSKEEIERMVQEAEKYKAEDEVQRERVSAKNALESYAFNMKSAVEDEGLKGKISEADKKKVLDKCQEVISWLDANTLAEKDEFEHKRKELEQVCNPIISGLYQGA
T3 sequence (chain, as listed by the source limits assumed): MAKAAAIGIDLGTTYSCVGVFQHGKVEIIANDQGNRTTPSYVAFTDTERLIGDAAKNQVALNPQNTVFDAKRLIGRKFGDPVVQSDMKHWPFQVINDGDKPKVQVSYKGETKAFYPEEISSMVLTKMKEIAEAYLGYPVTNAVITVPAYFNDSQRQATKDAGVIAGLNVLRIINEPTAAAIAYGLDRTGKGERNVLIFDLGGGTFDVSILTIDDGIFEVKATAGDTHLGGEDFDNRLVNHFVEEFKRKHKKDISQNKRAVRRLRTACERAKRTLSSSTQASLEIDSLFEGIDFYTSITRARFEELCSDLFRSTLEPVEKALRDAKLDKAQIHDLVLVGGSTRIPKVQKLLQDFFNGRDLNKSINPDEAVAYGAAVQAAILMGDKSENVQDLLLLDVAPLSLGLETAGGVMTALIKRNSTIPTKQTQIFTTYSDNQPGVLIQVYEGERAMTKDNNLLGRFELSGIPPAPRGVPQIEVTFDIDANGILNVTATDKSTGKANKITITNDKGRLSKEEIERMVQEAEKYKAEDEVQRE
T1 sequence (P0DMV8 whole entry): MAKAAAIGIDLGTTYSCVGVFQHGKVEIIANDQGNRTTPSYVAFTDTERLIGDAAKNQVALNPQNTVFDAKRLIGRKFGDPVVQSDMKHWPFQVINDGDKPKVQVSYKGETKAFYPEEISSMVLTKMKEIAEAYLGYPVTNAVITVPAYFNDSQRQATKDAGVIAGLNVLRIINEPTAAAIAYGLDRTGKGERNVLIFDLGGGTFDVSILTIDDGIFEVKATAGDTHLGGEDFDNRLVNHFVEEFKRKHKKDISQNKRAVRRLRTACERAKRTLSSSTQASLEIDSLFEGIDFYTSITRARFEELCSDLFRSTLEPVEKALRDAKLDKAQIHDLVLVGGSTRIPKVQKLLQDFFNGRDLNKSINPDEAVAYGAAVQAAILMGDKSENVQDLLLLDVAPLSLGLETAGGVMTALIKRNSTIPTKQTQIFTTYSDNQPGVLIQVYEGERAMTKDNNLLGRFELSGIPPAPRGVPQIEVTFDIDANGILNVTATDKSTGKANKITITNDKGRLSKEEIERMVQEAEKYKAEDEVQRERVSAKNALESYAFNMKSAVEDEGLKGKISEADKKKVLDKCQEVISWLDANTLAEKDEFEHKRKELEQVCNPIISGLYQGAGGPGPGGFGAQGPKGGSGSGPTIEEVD

B1: 77A antibody (clone 77A, murine anti-HSP70 mAb) (antibody, V domains shown)
VH: QIQLVQSGPELKKPGETVKISCKASGYTFTNYGMNWVKQAPGKGLKWMGWINTYTGEPTYADDFKGRFAFSLETSATTAYLQINNLKNEDTATYFCARYDHAMDYWGQGTSVTVSS
VL: DIVMSQSPSSLAVSAGEKVTMSCKSSQSLLNSGTRKNYLAWYQQKPGQSPKLLIYWTSTRESGVPDRFTGSGSGTDFTLTINSVQAEDLAVYYCKQSYTLYTFGGGTKLEIK
notes: Murine hybridoma mAb; its isotype control is IgG2B; also called mAb 77A
B1 was tested, and the “fold greater affinity (KD) than for ATP-enriched HSP70” value [1] was at least 4 fold, the binding result 614 was “binds” and the binding result 534 was “binds”.
